Molecular target: RTP1S_C2-Strep (TM domain deletion mutant of RTP1S, 1-176 amino acids, with a Strep-tag at the C terminus) (mouse)
Assay: SEC-MALS; OH-Pak SB-804HQ column, 100 μl of 0.3 mg/ml, 20 mM phosphate buffer pH 8.0, 100 mM NaCl

stoichiometry N: 2
Substance: RTP1S_C2-Strep (TM domain deletion mutant of RTP1S, 1-176 amino acids, with a Strep-tag at the C terminus) (domain or fragment)

Reference: article PMC6779431
